Experimental data from patent publication EP4491630A1, “T-CELL RECEPTOR FOR ACUTE MYELOID LEUKEMIA (AML)” (Universitetet I Oslo, priority 2023, dated 2025).
One block for each molecule: values may come before it. Ends that are not written are not given here.

Experiments:
[1] = system: TCR^FLT3D/Y cells; conditions: 28 candidate 9mers from the human proteome pulsed on K562 cells
Protocol: TCR-transduced T cells were co-cultured with cell lines or primary patient tumor cells at an effector:target cell ratio of 1:2 (100,000:200,000 cells/well) and reactivity was investigated by measuring CD137 upregulation or release of IFN-γ. […] Cells were placed in round or flat bottom 96-well plates and after 18-20 h of co-incubation centrifuged at 700 g for 2 min. Supernatants were harvested for measurement of IFN-γ by ELISA, while cells were washed and stained with anti-CD137. In some experiments, transduced T cells were labeled with 0.75 µM CTV to distinguish them from target cells. Reagents for IFN-γ ELISA were acquired from BD Pharmingen or R&D Systems: mouse anti-human IFN-γ capture antibody (NIB42), Biotin Mouse Anti-Human IFN-γ detection antibody (4S.B3), streptavidin-HRP, stabilized tetramethylbenzidine and hydrogen peroxide as substrate solutions, sulfuric acid as stop solution, and recombinant human IFN-γ protein as standard. The assay was performed according to manufacturer's instructions.

[2] = target: HLA-A2 presenting the cognate NY-ESO1 peptide (human) (UniProt P78358); assay: cell-based or functional assay
[3] = target: T1, FLT3 D835Y peptide on HLA-A*02:01 (human); assay: CD137 upregulation; transduced T cells of 4 donors against HLA-A2-transduced K562 pulsed with titrated peptide; full-length, on cells
T1 peptide: YIMSDSNYV

[4] = target: T2, MED1 peptide on HLA-A*02:01 (human); assay: cytokine release
T2 peptide: YITSDMFYV

[5] = target: T3, LZTR1 peptide on HLA-A*02:01 (human); assay: cytokine release
T3 peptide: AVISDAMYI

[6] = target: T4, PRADC1 peptide on HLA-A*02:01 (human); assay: cytokine release
T4 peptide: AVDNDSFYV

[7] = target: T5, FLT3 wild type peptide on HLA-A*02:01 (human); assay: multimer staining
T5 peptide: DIMSDSNYV

Molecule: AVISDAMYI [peptide 11]
activation of TCR^FLT3D/Y cells (IFN-γ production) [1]: activated

Molecule: YITSDMFYV [peptide 12]
activation of TCR^FLT3D/Y cells (IFN-γ production) [1]: activated

Molecule: AVDNDSFYV [peptide 15]
activation of TCR^FLT3D/Y cells (IFN-γ production) [1]: activated

T cell activation by peptide-pulsed target cells, EC50 [2]: 5.5 nM
Molecule: NY-ESO1-specific TCR 1G4

EC50 of peptide [3]: 0.081 nM
binding result [4]: recognises
binding result [5]: recognises
binding result [6]: recognises
binding result [7]: no recognition
B1: TCR^FLT3D/Y (TCR, V domains shown)
Valpha: ELKVEQNPLFLSMQEGKNYTIYCNYSTTSDRLYWYRQDPGKSLESLFVLLSNGAVKQEGRLMASLDTKARLSTLHITAAVHDLSATYFCAVVGGSQGNLIFGKGTKLSVKP
Vbeta: DVKVTQSSRYLVKRTGEKVFLECVQDMDHENMFWYRQDPGLGLRLIYFSYDVKMKEKGDIPEGYSVSREKKERFSLILESASTNQTSMYLCASSLSPGGGYGYTFGSGTRLTVV
